According to the supplement of paper PMC10724198:
± gives the standard deviation of the averaged measurements.

System: Saccharomyces cerevisiae
Test: protein stability index of tFT-peptide fusion (C-terminal peptide) (PSI (0-1 scale)); higher = more stable (slower turnover)
Conditions: temperature: 30 C
Description: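 MPS profiling in S. cerevisiae of the yeast C-terminome library: the last 12 aa of each annotated ORF are fused to the C-terminus of a sfGFP-mCherry timer, after a GGGS linker. Cells are FACS-sorted into 8 mCherry/sfGFP bins and deep-sequenced. PSI runs from 0 (unstable) to 1 (stable); wild type and das1Δ backgrounds, two technical replicates each.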

[1] = genetic background: das1 deletion

| Sequence | protein stability index [1] | protein stability index (genetic background: wild type) |
| --- | --- | --- |
| LLQVYDRVKASM [TOP3 C-terminal 12 aa] | 0.67 ± 0.00086 | 0.5992 ± 0.0013 |
| LLRPPKPPLFCC [YGL123C-A C-terminal 12 aa] | 0.6368 ± 0.0044 | 0.418 ± 0.032 |
| LLRPRSPVQKAQ [KAR4 C-terminal 12 aa] | 0.69 ± 0.025 | 0.658 ± 0.064 |
| LLVEKKDIPSNS [PRM4 C-terminal 12 aa] | 0.6965 ± 0.001 | 0.675 ± 0.013 |
| LLYCNIYVYYRF [KAR1 C-terminal 12 aa] | 0.15 ± 0.014 | 0.161 ± 0.0022 |
| LMRRFVLEFEKQ [SEC6 C-terminal 12 aa] | 0.716 ± 0.0098 | 0.726 ± 0.021 |
| LNEKESTKLFYR [ELP6 C-terminal 12 aa] | 0.6871 ± 0.002 | 0.701 ± 0.013 |
| LNELGEFKVINS [NPR2 C-terminal 12 aa] | 0.689 ± 0.014 | 0.6914 ± 0.0059 |
| LNKKREKKDETE [CSM1 C-terminal 12 aa] | 0.707 ± 0.038 | 0.718 ± 0.055 |
| LNNIKTIIEGPE [XYL2 C-terminal 12 aa] | 0.676 ± 0.058 | 0.716 ± 0.054 |
| LPAEILSNEPLK [YML119W C-terminal 12 aa] | 0.688 ± 0.01 | 0.692 ± 0.071 |
| LPEPNFFRKAAF [AXL1 C-terminal 12 aa] | 0.7202 ± 0.0035 | 0.7 ± 0.015 |
| LPFGCVDDVNRQ [MSK1 C-terminal 12 aa] | 0.706 ± 0.05 | 0.719 ± 0.021 |
| LPKIIKKHQRLS [MRH4 C-terminal 12 aa] | 0.724 ± 0.056 | 0.191 ± 0.0044 |
| LPPGRVFSRVRR [MRPL35 C-terminal 12 aa] | 0.683 ± 0.022 | 0.666 ± 0.012 |
| LPRDSAMSAPDI [YMR085W C-terminal 12 aa] | 0.7049 ± 0.001 | 0.7081 ± 0.0025 |
| LQMVKNAKDLST [CYR1 C-terminal 12 aa] | 0.6866 ± 0.0026 | 0.694 ± 0.016 |
| LQSDKDLQSLLT [CUE1 C-terminal 12 aa] | 0.698 ± 0.0011 | 0.683 ± 0.011 |
| LRSKVKNHAQRH [YLR428C C-terminal 12 aa] | 0.714 ± 0.018 | 0.693 ± 0.021 |
| LRTVASRLKERY [PNO1 C-terminal 12 aa] | 0.698 ± 0.013 | 0.706 ± 0.056 |
| LSEEALSTCCCS [YJL118W C-terminal 12 aa] | 0.7528 ± 0.0039 | 0.738 ± 0.047 |

| Sequence | protein stability index [1] | protein stability index (genetic background: wild type) |
| --- | --- | --- |
| LSFADYRKKLLK [SET3 C-terminal 12 aa] | 0.70897 ± 0.00015 | 0.689 ± 0.016 |
| LTVTRWKLQITG [YPR160W-A C-terminal 12 aa] | 0.659 ± 0.013 | 0.4486 ± 0.0032 |
| LVSMTILVSGLI [SHE9 C-terminal 12 aa] | 0.246 ± 0.025 | 0.262 ± 0.02 |
| LWDNKPVEKKRQ [SHH4 C-terminal 12 aa] | 0.712 ± 0.023 | 0.72 ± 0.027 |
| LYEEHQQMLDKQ [IPI3 C-terminal 12 aa] | 0.7227 ± 0.0019 | 0.726 ± 0.088 |
| LYSLPISVPCTS [YDL086C-A C-terminal 12 aa] | 0.292 ± 0.013 | 0.313 ± 0.018 |
| MALLAMVMGVDM [URA2 C-terminal 12 aa] | 0.6024 ± 0.0046 | 0.676 ± 0.13 |
| MDTLEEMFTEEP [PRP42 C-terminal 12 aa] | 0.726 ± 0.027 | 0.7107 ± 0.0067 |
| MIVRFFKKVTFR [CHS1 C-terminal 12 aa] | 0.7384 ± 0.0049 | 0.705 ± 0.008 |
| MIWKWLIEDKKN [MRS2 C-terminal 12 aa] | 0.72 ± 0.011 | 0.69 ± 0.052 |
| MKDFSKNEQKEK [SEY1 C-terminal 12 aa] | 0.719 ± 0.037 | 0.72 ± 0.043 |
| MKHTKKLQLDKV [PKP2 C-terminal 12 aa] | 0.69 ± 0.007 | 0.696 ± 0.024 |
| MNEIDARIFEYK [SPO11 C-terminal 12 aa] | 0.764 ± 0.024 | 0.681 ± 0.013 |
| MQLARRIRGQFI [CSE4 C-terminal 12 aa] | 0.691 ± 0.0093 | 0.646 ± 0.02 |
| MRIRSDMSMMRW [COR1 C-terminal 12 aa] | 0.71 ± 0.0094 | 0.7133 ± 0.0025 |
| MRNNNDTTFKSF [YNL013C C-terminal 12 aa] | 0.685 ± 0.015 | 0.698 ± 0.02 |
| MSLMRKAYHFWC [BAP2 C-terminal 12 aa] | 0.726 ± 0.024 | 0.619 ± 0.039 |
| MTMILSRMSCSA [IRA2 C-terminal 12 aa] | 0.622 ± 0.014 | 0.609 ± 0.015 |
| MVEAAALKRNKK [ARO10 C-terminal 12 aa] | 0.686 ± 0.049 | 0.7161 ± 0.0026 |
| MVYKPEDSLLKI [MTR2 C-terminal 12 aa] | 0.684 ± 0.039 | 0.67 ± 0.014 |
| MYCASFQLPANV [TRM5 C-terminal 12 aa] | 0.673 ± 0.015 | 0.6578 ± 0.0027 |

| Sequence | protein stability index [1] | protein stability index (genetic background: wild type) |
| --- | --- | --- |
| NDEEKQALAEKA [YLR297W C-terminal 12 aa] | 0.683 ± 0.011 | 0.6834 ± 0.0067 |
| NDGTSANSACSC [VPS21 C-terminal 12 aa] | 0.715 ± 0.012 | 0.691 ± 0.045 |
| NDITLAVYTSAQ [EGO2 C-terminal 12 aa] | 0.6895 ± 0.00082 | 0.651 ± 0.021 |
| NEDLGLSDIKVE [ZPR1 C-terminal 12 aa] | 0.694 ± 0.0078 | 0.68742 ± 0.00015 |
| NEQEINKIFEPE [HXT14 C-terminal 12 aa] | 0.694 ± 0.01 | 0.743 ± 0.052 |
| NEQVKKFFLNNV [NAS6 C-terminal 12 aa] | 0.701 ± 0.029 | 0.714 ± 0.01 |
| NGLNWEVIEYHA [HRI1 C-terminal 12 aa] | 0.724 ± 0.008 | 0.713 ± 0.042 |
| NGNNAESGETKQ [SSC1 C-terminal 12 aa] | 0.6813 ± 0.0068 | 0.6673 ± 0.0059 |
| NKAPSWLLTALE [OCA1 C-terminal 12 aa] | 0.6834 ± 0.0031 | 0.69 ± 0.027 |
| NKKRLSVDYILT [USV1 C-terminal 12 aa] | 0.689 ± 0.05 | 0.679 ± 0.022 |
| NKNKNKVTKGRR [RAD27 C-terminal 12 aa] | 0.668 ± 0.024 | 0.672 ± 0.026 |
| NKVDINMEQEKF [UGO1 C-terminal 12 aa] | 0.699 ± 0.043 | 0.651 ± 0.027 |
| NLANDEQPLHNL [MDM30 C-terminal 12 aa] | 0.699 ± 0.02 | 0.659 ± 0.03 |
| NLGYSKDQVFKF [MCR1 C-terminal 12 aa] | 0.708 ± 0.0082 | 0.688 ± 0.039 |
| NMIIDTLGGNEK [COQ6 C-terminal 12 aa] | 0.735 ± 0.019 | 0.692 ± 0.013 |
| NNLNTNTSTTTQ [MIT1 C-terminal 12 aa] | 0.682 ± 0.011 | 0.68 ± 0.065 |
| NNLQSFYFDNSN [BCK2 C-terminal 12 aa] | 0.689 ± 0.018 | 0.706 ± 0.03 |
| NNNIANDYMDID [YML053C C-terminal 12 aa] | 0.7268 ± 0.005 | 0.815 ± 0.067 |
| NNRYKNFSPKRL [YHR071C-A C-terminal 12 aa] | 0.746 ± 0.011 | 0.683 ± 0.034 |
| NPTIGRDSKKAV [PEX30 C-terminal 12 aa] | 0.694 ± 0.011 | 0.702 ± 0.015 |
| NPWKSQIRDWKN [YBL100W-C C-terminal 12 aa] | 0.704 ± 0.018 | 0.77 ± 0.031 |

| Sequence | protein stability index [1] | protein stability index (genetic background: wild type) |
| --- | --- | --- |
| NRLKGQNSHQQR [RGS2 C-terminal 12 aa] | 0.7072 ± 0.0026 | 0.726 ± 0.035 |
| NRRSDKNLPDAT [STE12 C-terminal 12 aa] | 0.7085 ± 0.002 | 0.694 ± 0.0077 |
| NSEKDQVPILSS [SSK22 C-terminal 12 aa] | 0.702 ± 0.011 | 0.729 ± 0.041 |
| NSTSSKDKKKKN [SES1 C-terminal 12 aa] | 0.707 ± 0.008 | 0.7314 ± 0.0025 |
| NTAKATYDLYTN [GPI8 C-terminal 12 aa] | 0.686 ± 0.012 | 0.6703 ± 0.0046 |
| NTQVDDETKKNN [YDC1 C-terminal 12 aa] | 0.7078 ± 0.0056 | 0.7367 ± 0.0051 |
| NVDVVTPNSIFI [TMA17 C-terminal 12 aa] | 0.67 ± 0.036 | 0.6982 ± 0.0046 |
| NVKVKALQRMTW [TIS11 C-terminal 12 aa] | 0.6967 ± 0.0018 | 0.729 ± 0.039 |
| NVPSFGQDELDQ [MPS3 C-terminal 12 aa] | 0.699 ± 0.016 | 0.688 ± 0.011 |
| NVTGSANNGTHI [SVS1 C-terminal 12 aa] | 0.708 ± 0.032 | 0.671 ± 0.016 |
| NYDLQKLYDKID [QDR3 C-terminal 12 aa] | 0.705 ± 0.037 | 0.6544 ± 0.0034 |
| NYLKKHSEKQDA [ATP19 C-terminal 12 aa] | 0.709 ± 0.022 | 0.723 ± 0.066 |
| PEALIKSMTSKL [SPS19 C-terminal 12 aa] | 0.712 ± 0.038 | 0.725 ± 0.18 |
| PEKGSGFNTNLG [DCS2 C-terminal 12 aa] | 0.6973 ± 0.0014 | 0.738 ± 0.025 |
| PKRGGLFGFGRL [JIP4 C-terminal 12 aa] | 0.7853 ± 0.0046 | 0.762 ± 0.023 |
| PLGEKFLNISNS [TEN1 C-terminal 12 aa] | 0.7047 ± 0.0035 | 0.694 ± 0.013 |
| PLMTVLGLEKKK [DPC13 C-terminal 12 aa] | 0.703 ± 0.021 | 0.675 ± 0.064 |
| PLTRFHSCPITA [ECM13 C-terminal 12 aa] | 0.275 ± 0.035 | 0.301 ± 0.013 |
| PPASESNKGINE [YDR008C C-terminal 12 aa] | 0.694 ± 0.013 | 0.661 ± 0.032 |
